The Kd is a measure of binding affinity in units of concentration.

T1: interferon-γ (UniProt P01579 24-166)
T1 construct: also called IFN-γ
T1 sequence: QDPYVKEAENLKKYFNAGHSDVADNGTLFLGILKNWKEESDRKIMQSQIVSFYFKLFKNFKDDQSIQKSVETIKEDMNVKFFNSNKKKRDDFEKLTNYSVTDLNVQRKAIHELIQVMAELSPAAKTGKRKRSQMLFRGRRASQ

B1: secreted HCMV UL21.5 protein (UL21.5 activity in concentrated supernatant of wild-type HCMV-infected human fibroblasts) (other)
chain: APSQKSKRSVTVEQPSTSADGSNTTPSKNVTLSQGGSTTDGDEDYSGEYDVLITDGDGSEHQQPQKTDEHKENQAKENEKKIQ
modifications: highly glycosylated (sites not given)
notes: Not purified: tested as 300-fold concentrated serum-free culture medium of fibroblasts infected with wild-type AD169 virus; Secreted forms of 45 kDa and 25 kDa are cited; also called Wt supernatant; HCMV-infected cell supernatant
B2: RANTES (regulated upon activation, normal T cell expressed and secreted) (ligand)
chain: SPYSSDTTPCCFAYIARPLPRAHIKEYFYTSGKCSNPAVVFVTRKNRQVCANPEKKWVREYINSLEMS
modifications: also: 125I-labeled in tracer form, position not given here
notes: also called 125I-labeled RANTES; 125I-RANTES
B3: MIP-1α (ligand)
chain: SLAADTPTACCFSYTSRQIPQNFIADYFETSSQCSKPGVIFLTKRSRQVCADPSEEWVQKYVSDLELSA
modifications: also: 125I-labeled in tracer form, position not given here
notes: also called MIP-1 alpha; 125I-labeled MIP-1α

The target in test [1] is T1, interferon-γ. Put plainly: competition of unlabeled cytokine with 125I-RANTES for cross-linking to UL21.5.
Test [2] addresses B1. Put plainly: Scatchard analysis, 125I-RANTES (25-500 pM) with infected cell supernatant, PEG precipitation and filtration.
The target in test [3] is B1. Put plainly: summary in the description of the Scatchard analysis of Example 4 (rounded value).
For test [4], the target named is B1. Briefly: EDC cross-linking of 125I-chemokine to infected cell supernatant, SDS-PAGE autoradiogram.

For B1, the binding result in test [1] is listed as “no binding”.

As to B2, the Kd came to 0.147 nM in test [2] and 0.15 nM in test [3].

As for B3, the binding result in test [4] is listed as “no binding (tested: 0.4 nM 125I-labeled chemokine)”.
